Laboratory results published in US20170198056A1 (MEDICINAL CHEMISTRY PHARMACEUTICALS, published 2017).
*: point of attachment. αGalNAc = CC(=O)N[C@@H]1[C@@H](O)[C@@H](O)[C@@H](CO)O[C@@H]1*

Key:
[1] = biological target: T1, Compound 13: … (human); test: glycopeptide microarray, Cy3 anti-mouse IgG
T1 construct: also called glycopeptide in which Tn has been modified in the tandem unit peptide of MUC2
T1 peptide: {5‑oxohexanoyl}-PPTT(αGalNAc)T(αGalNAc)PSPPPTSTT(αGalNAc)T(αGalNAc)LPPT-NH2
Procedure: (§1) A substrate for an immobilized sugar chain array (made by Sumitomo Bakelite) was treated for 2 hours at 37° C. with 2 M HCl and the t-butoxycarbonyl group (Boc group) protection was removed. The product was washed twice with water and then dried to place aminoxy groups on the surface of the substrate. A spotting solution (25 mM AcOH/pyridine, 0.005% Triton X-100, pH 5.4) was added to the various synthetic glycopeptides shown in Table 1 to dissolve them. A spotter (BioChip Arrayer, made by Cartesion) employed a spot pin (CMP, pin diameter 0.4 mm, Arraylt Corp.) to spot the substrate. A reaction was conducted for 1 hour at 80° C. to immobilize the glycopeptides on the substrate. Washing was conducted once with water, the product was immersed in 10 mg/mL succinic anhydride, a reaction was conducted for 3 hours at room temperature, and the unreacted aminooxy groups were protected. Washing was conducted twice with water and the product was dried.
(§2) The reaction supernatant was diluted 10-fold with the reaction solution given below. A Hybricover (made by Sumitomo Bakelite) was placed on the immobilized glycopeptide array, 70 μL of the diluted solution was spread out, and a reaction was conducted for 2 hours at room temperature. […] Fluorescent intensity of Cy3 was measured with a scanner (Typhoon TRIO+, GE Healthcare). […]

[2] = biological target: T2, Compound 15: 5-oxohexanoyl-Ser-Ala-Ser-Thr-Gly-His-Ala-Thr(Tn)-Pro-Leu-Pro-Val-Thr-Asp-Thr-Ser-Cys-NH2 (human); test: glycopeptide microarray, Cy3 anti-mouse IgG
T2 construct: also called glycopeptide in which Tn has been modified in the tandem unit peptide of MUC4
T2 peptide: {5‑oxohexanoyl}-SASTGHAT(αGalNAc)PLPVTDTSC-NH2
Procedure: as §1, §2

B1: Monoclonal antibody SN-101 (antibody, V domains shown)
VH: EVNLEESGGGLVQPGGSMKLSCVASGFTFSNYWMNWVRQSPEKGLEWVAQIRLKSDNYATHYAESVKGRFTISRDDSKSSVYLQMNNLRAEDTGIYYCTGGVFDYWGQGTTLTVSS
VL: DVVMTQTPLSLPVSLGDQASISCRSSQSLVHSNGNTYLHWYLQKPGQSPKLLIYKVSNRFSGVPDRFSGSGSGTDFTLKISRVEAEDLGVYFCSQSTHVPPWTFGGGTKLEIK
notes: Mouse monoclonal antibody from a hybridoma; it was purified on Protein G and detected with anti-mouse IgG; The array assay used culture supernatant diluted 10-fold; also called antibody of hybridoma strain 3A9-4B1 (NITE BP-01845)
- binding result [1]: no binding
- binding result [2]: no binding
